These results are taken from patent US8419708B2, “Transdermal drug administration apparatus having microneedles” (Hisamitsu Pharmaceuticals Co., Inc., priority 2006, dated 2013).

Common to all, as to type: in vitro ADME, hairless mice
Data set [1] in a line: Skin permeation with calcein sodium coating and dissolving solution in combination. The protocol:
A transdermal drug administration apparatus having microneedles of FIG. 9 was used. 70 mg of calcein sodium as a drug was mixed with 930 μL of a 5% aqueous polymer (polyvinyl pyrrolidone, dextran) solution. The whole surface of microneedles was coated with 25 μL of the solution. The applied solution was dried at room temperature for 12 hours. Moreover, no polymer was added to a coating agent containing only water.
(§1) To measure the amount of permeation, the skin was ablated from the trunks of hairless mice and attached to vertical acrylic cells (2.54 cm^2) with the dermis facing a receptor layer. The cells were loaded in a thermostat set to 37° C. The transdermal drug administration apparatus having microneedles of the present invention was affixed to the stratum corneum. Sampling was conducted at a speed of 5.5 mL/hr. after 1 hour and 2 hours and subsequently at 2-hour intervals until the 6th hour. A phosphate-buffered saline (PBS) was used in the receptor layer. A drug content in the receptor solution obtained each time was measured with a fluorophotometer (excitation: 485, fluorescence: 538).
(§2) Animal type: hairless mice (n=3)
(§3) Receptor solution: 4 mL of PBS (Sampling volume: 200 μL/time)
(§4) Area: 2.54 cm^2 (however, the M.N substrate itself is 1 cm^2)
(§5) Dissolving solution: a saline was added dropwise from a dissolving solution reservoir.

A short description of data set [2]: Skin permeation with drug-coated microneedles and dissolving solution in combination (vertical acrylic cells). The note with it: FIG. 12. The procedure: A transdermal drug administration apparatus having microneedles of FIG. 9 was used. 30% aqueous solution was prepared with 100 mg of BSA (bovine serum albumin) and […] of FITC-BSA (fluorescently labeled bovine serum albumin) as drugs and 350 μL of water and used as a mother liquid to prepare 10% and 20% aqueous solutions. The whole surface of microneedles was coated with each of the prepared 10 to 30% aqueous solutions in an amount of 30 μL/patch. The applied solution was dried at room temperature for 12 hours to prepare 3 kinds in total of coated microneedles (→3 mg/patch, 6 mg/patch, and 9 mg/patch) (FIG. 12).
The drug injection models used as controls are shown (FIG. 13), 15 μL of a 20% aqueous drug (FITC-BSA) solution was added to a dissolving solution without coating microneedles with the drug, and after coating with a 5% aqueous PVA203 solution in an amount of 30 μL/patch, the drug was added.
as §1, with “8th” for “6th”
as §2, §3, §4, §5
PVA203: polyvinyl alcohol (partially saponified, polymerization degree: 300, KURARAY CO., LTD.)

Data set [3] in a line: Skin permeation with drug coating-water-soluble polymer and dissolving solution in combination. The note with it: FIG. 14; for skin permeability: 20 μL dissolving solution in combination. The procedure:
A transdermal drug administration apparatus having microneedles of FIG. 9 was used. 400 mg of BSA (bovine serum albumin) and 400 mg of FITC-BSA (fluorescently labeled bovine serum albumin) as drugs were dissolved in 5 mL of water. Likewise, 800 mg of a polymer (PEO, PVA117) was dissolved in 5 mL of water. Both of the solutions were mixed in equal amounts to prepare a coating solution. The whole surface of microneedles was coated with 25 μL of the coating solution. The applied solution was dried with a drier for 30 minutes. Moreover, no polymer was added to a coating agent containing only water.
as §1, with “8th” for “6th”, “496,” for “485,”, “517).” for “538).”
as §2
Receptor solution: 4 mL of PBS (Sampling volume: 500 μL/time)
as §4, §5
PEO: polyethylene oxide (molecular weight: 900,000, concentration: 2.5%)
PVA117S: polyvinyl alcohol (completely saponified, KURARAY CO., LTD.)

Take `O=C(O)CN(CC(=O)O)Cc1cc2c(cc1O)Oc1cc(O)c(CN(CC(=O)O)CC(=O)O)cc1C21OC(=O)c2ccccc21` [calcein sodium]: the “permeability-promoting effects by dropwise addition of the dissolving solution” value is recorded as “promoting effects were also observed” in data set [1] (dextran used in the coating); “promoting effects were also observed” in data set [1] (polyvinyl pyrrolidone used in the coating); “Permeability-promoting effects were observed” in data set [1] (regardless of the presence or absence of the polymer in the coating, FIGS. 15-17).
Turning to “FITC-BSA: fluorescently labeled bovine serum albumin, used as model drug in the microneedle coating (mixed with BSA)”, the “effect of using the dissolving solution in combination” value in data set [2] (amount of drug coating 3 mg (of 3, 6 and 9 mg), dissolving solution fixed to 20 μL) was “highest”. For the same compound, the “synergistic effect brought about by the dissolving solution” value in data set [2] (amount of drug coating 9 mg, dissolving solution fixed to 20 μL) is “no synergistic effect”. Also, the skin permeability entry is “increased” in data set [2] (drug-coated microneedles, 20 μL dissolving solution (saline) used in combination); “increased” in data set [3] (only water, no polymer in coating composition); “increased” in data set [3] (polyethylene oxide (molecular weight 900,000) mixed into coating composition). The “skin permeability-promoting effects brought about by the addition of the dissolving solution” value in data set [3] (poorly soluble polymer PVA117 mixed into coating composition) is “no skin permeability-promoting effects”.
